Data: patent US20220313845A1 (MYTHIC THERAPEUTICS, published 2022)
Where a chain is given by its changes, count along the chain named.

B1: rovalpituzumab (antibody, V domains shown)
VH: QVQLVQSGAEVKKPGASVKVSCKASGYTFTNYGMNWVRQAPGQGLEWMGWINTYTGEPTYADDFKGRVTMTTDTSTSTAYMELRSLRSDDTAVYYCARIGDSSPSDYWGQGTLVTVSS
VL: EIVMTQSPATLSVSPGERATLSCKASQSVSNDVVWYQQKPGQAPRLLIYYASNRYTGIPARFSGSGSGTEFTLTISSLQSEDFAVYYCQQDYTSPWTFGQGTKLEIK
notes: IgG expressed in Expi293; the entries called heavy and light chain are variable domains; also called MYT0638
B2: SEQ ID NO 616 (other)
VH: EVQLVESGGGLVQPGGSLRLSCAASGFNIHYEEIGWVRRAPGKGEELVARIYPTNGYTRYADSVKGRFTISADTSKNTAYLQMNSLRAEDTAVYYCARYSYYYHYGGGMDYSGQGTLVTVSS
notes: also called Humanized VH variant #11
B3: SEQ ID NO 606 (other)
VH: EVQLVESGGGLVQPGGSLRLSCAASGFNISYYYIGWVRRAPGKGEELVARIYPTNGYTRYADSVKGRFTISADTSKNTAYLQMNSLRAEDTAVYYCARAYGDSDHYSEAIDYSGQGTLVTVSS
notes: also called Humanized VH variant #1
B4: SEQ ID NO 613 (other)
VH: EVQLVESGGGLVQPGGSLRLSCAASGFNIEYESIGWVRRAPGKGEELVARIYPTNGYTRYADSVKGRFTISADTSKNTAYLQMNSLRAEDTAVYYCARSEYSHYSGSHHYYALDYSGQGTLVTVSS
notes: also called Humanized VH variant #8
B5: SEQ ID NO 614 (other)
VH: B4 VH with E30S, Y31E, E32H, E100Y, S102H, H103G, G106H, S107G, L113I
notes: also called Humanized VH variant #9
B6: SEQ ID NO 618 (other)
VH: B4 VH with E30S, Y31E, E100Y, S102A, G106A, S107G, H108Y, H109Y
notes: also called Humanized VH variant #13
B7: SEQ ID NO 610 (other)
VH: EVQLVESGGGLVQPGGSLRLSCAASGFNIEYYSIGWVRRAPGKGEELVARIYPTNGYTRYADSVKGRFTISADTSKNTAYLQMNSLRAEDTAVYYCAREYYSYHDEYEYDYALDYSGQGTLVTVSS
notes: also called Humanized VH variant #5
B8: SEQ ID NO 607 (other)
VH: B4 VH with E30Y, Y31S, E100Y, S105D, S107H, H108Y, A112G
notes: also called Humanized VH variant #2
B9: SEQ ID NO 619 (other)
VH: B4 VH with E30S, Y31H, E32Y, R39H, S99H, E100H, S105D, S107H, H108S, A112G
notes: also called Humanized VH variant #14
B10: SEQ ID NO 620 (other)
VH: B4 VH with E30Y, Y31D, E32H, E100S, H103G, S105Y
notes: also called Humanized VH variant #15
B11: SEQ ID NO 609 (other)
VH: EVQLVESGGGLVQPGGSLRLSCAASGFNIYSYSIGWVRRAPGKGEELVARIYPTNGYTRYADSVKGRFTISADTSKNTAYLQMNSLRAEDTAVYYCAREHYHGYYDGAHYYALDYSGQGTLVTVSS
notes: also called Humanized VH variant #4
B12: SEQ ID NO 611 (other)
VH: B11 VH with Y30E, S31H, E99H, H102Y, Y105H, D106S, A108Y, Y110H, L113I
notes: also called Humanized VH variant #6
B13: SEQ ID NO 608 (other)
VH: EVQLVESGGGLVQPGGSLRLSCAASGFNISYYSIGWVRRAPGKGEELVARIYPTNGYTRYADSVKGRFTISADTSKNTAYLQMNSLRAEDTAVYYCARYHHSEYSDYYGYYSEYGFDYSGQGTLVTVRS
notes: also called Humanized VH variant #3
B14: SEQ ID NO 612 (other)
VH: EVQLVESGGGLVQPGGSLRLSCAASGFNISSSDIGWVRRAPGKGEELVARIYPTNGYTRYADSVKGRFTISADTSKNTAYLQMNSLRAEDTAVYYCARYYYYDDDGYYYEHAIDYSGQGTLVTVSS
notes: also called Humanized VH variant #7
B15: SEQ ID NO 615 (other)
VH: EVQLVESGGGLVQPGGSLRLSCAASGFNIHSYYIGWVRRAPGKGEELVARIYPTNGYTRYADSVKGRFTISADTSKNTAYLQMNSLRAEDTAVYYCARGYYGHEYDYHYDYYGGGFDYSGQGTLVTVSS
notes: also called Humanized VH variant #10

These binders were tested against T1, DLL3 on NCI-H82 cells (human, UniProt Q9NYJ7 27-618) (assay: flow cytometry titration on NCI-H82 cells, Alexa Fluor 488 anti-human IgG; Example 37 calls the fitted value a dissociation constant KD).
T1 construct: Endogenous DLL3 of NCI-H82 (DLL3+) cells; also called cell surface DLL3
T1 sequence: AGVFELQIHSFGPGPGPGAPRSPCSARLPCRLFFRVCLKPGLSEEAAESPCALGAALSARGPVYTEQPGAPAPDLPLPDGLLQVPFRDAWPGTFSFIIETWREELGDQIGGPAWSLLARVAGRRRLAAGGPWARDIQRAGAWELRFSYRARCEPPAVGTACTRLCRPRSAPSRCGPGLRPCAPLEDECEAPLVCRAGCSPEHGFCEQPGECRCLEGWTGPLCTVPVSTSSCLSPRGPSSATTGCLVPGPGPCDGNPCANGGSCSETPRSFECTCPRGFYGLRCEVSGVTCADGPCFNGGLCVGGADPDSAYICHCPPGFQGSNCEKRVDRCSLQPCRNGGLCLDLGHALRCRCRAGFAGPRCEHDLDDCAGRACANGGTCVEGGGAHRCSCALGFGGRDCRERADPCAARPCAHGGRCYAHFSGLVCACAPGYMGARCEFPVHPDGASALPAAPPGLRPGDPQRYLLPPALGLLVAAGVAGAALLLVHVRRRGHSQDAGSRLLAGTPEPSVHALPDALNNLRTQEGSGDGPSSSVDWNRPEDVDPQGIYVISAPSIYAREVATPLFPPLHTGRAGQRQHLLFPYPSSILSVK
Experimental: FIGS. 20a-c: Characterization of binding affinity for anti-DLL3 mAbs. Anti-DLL3 mAbs were assayed for their binding to NCI-H82 cells.
Binding affinity of selected anti-DLL3 pH engineered antibody variants from Examples 9-13 were measured on NCI-H82 cells. 100,000 cells per well were resuspended in 900 μL FC buffer in a 96 well deep well plate. Rovalpituzumab and pH engineered antibody variants were serially diluted at a 1:3 dilution. 100 μL of diluted antibody was added to each well with final concentration ranging from […] and incubated for 2 hours at 4° C. Post incubation, the cells were spun at 2000 rpm for 2 min and supernatant was discarded. Cells were washed twice with 500 μL of ice-cold FC buffer and resuspended with 100 μL of FC buffer. The cells were then transferred from the deep well plate to 96 well round bottom plate, spun at 2000 rpm for 2 min and incubated with 100 μL of 10 μg/mL Alexa Fluor 488 conjugated goat anti-human IgG secondary antibody (ThermoFisher Scientific, A11013) for 30 min. Post incubation, cells were washed with FC buffer and resuspended in 100 μL of FC buffer to read on a BD Accuri C6 flow cytometer. Binding affinity was measured as a dissociation constant KD by GraphPad Prism assuming Michaelis-Menten binding kinetics. […]

Binder | KD [pM]
B1 | 8

Each binder was assayed against T2, recombinant human DLL3 extracellular domain (R&D Systems, Cat #9749-DL) (human, UniProt Q9NYJ7 27-492) (assay: phage ELISA after three rounds of panning on biotinylated recombinant human DLL3).
T2 construct: Bought protein; also called soluble recombinant human DLL3 extracellular domain
T2 sequence: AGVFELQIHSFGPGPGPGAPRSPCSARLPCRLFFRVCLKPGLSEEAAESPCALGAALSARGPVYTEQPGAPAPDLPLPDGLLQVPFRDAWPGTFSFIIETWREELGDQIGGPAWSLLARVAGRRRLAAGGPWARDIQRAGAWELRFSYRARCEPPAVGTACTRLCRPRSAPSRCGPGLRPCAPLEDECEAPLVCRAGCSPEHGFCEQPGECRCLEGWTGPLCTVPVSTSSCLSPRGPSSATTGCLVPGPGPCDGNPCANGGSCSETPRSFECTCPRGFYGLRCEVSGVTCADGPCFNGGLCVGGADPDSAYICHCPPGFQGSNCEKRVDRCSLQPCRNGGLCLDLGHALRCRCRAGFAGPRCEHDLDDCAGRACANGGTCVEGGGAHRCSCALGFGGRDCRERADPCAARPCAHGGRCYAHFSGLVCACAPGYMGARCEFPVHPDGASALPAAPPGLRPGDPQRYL
Text: Multiple ABPC display systems, including phage display systems and those with ABPCs based on VH domains, have been described in the literature and can be used as a template for selection of pH engineered ABPCs using panning (Scroter C (2015) “A generic approach to engineer antibody pH switches using combinatorial histidine scanning libraries and yeast display” mAbs, 7:1, 138-151; Bonvin P (2015) “De novo isolation of antibodies with pH-dependent binding properties” mAbs, 7:2, 294-302; Traxlmayr P (2014) “Construction of pH-sensitive Her2-binding IgG1-Fc by directed evolution” Biotechnology Journal 9(8): 1013-1022; Gera N (2012) “Design of pH sensitive binding proteins from the hyperthermophilic Sso7 d scaffold” PLOS ONE 7 (11) e48928). pH engineered anti-DLL3 variants were selected by screening a proprietary humanized VH domain phage display library. Humanized VH library was screened against soluble recombinant human DLL3 extracellular domain (R&D Systems, Cat #9749-DL) in three rounds of selections with successively lower concentrations to isolate pH dependent anti-DLL3 VH domains. Briefly, the library was depleted for non-specific binders by incubating with Dynal M-280 streptavidin beads, bound antibodies were separated via a magnet and supernatant was collected for positive selection with human DLL3. Depleted library was further incubated with biotinylated recombinant human DLL3 at pH 7.4 for 1-3 hours at room temperature. Dynal streptavidin beads were added to the mixture to capture human DLL3 bound antibodies and washed 3× with a pH 7.4 buffer. Bound antibodies were eluted from beads using 0.1 M glycine pH 2.7 which was then neutralized with 1M Tris pH 7.4.

Binder | binding result
B2 | binds
B3 | binds
B4 | binds
B5 | binds
B6 | binds
B7 | binds
B8 | binds
B9 | binds
B10 | binds
B11 | binds
B12 | binds
B13 | binds
B14 | binds
B15 | binds
